Drawing on patent US20110038881A1 (published 2011), this text covers IC50 for two molecules.

The target of experiment [1] is HLA-DRB1*0101 (human). The experiment is described as follows: competition.
The target in experiment [2] is HLA-DRB1*0701 (human). The experiment is described as follows: competition binding.
Experiment [3] addresses HLA-DRB1*0101 (human). In words: competition binding.
The target in experiment [4] is HLA-DRB4*0101 (human). The experiment is described as follows: competition binding.
The target of experiment [5] is HLA-DRB1*0301 (human). In words: competition binding.
For experiment [6], the target named is HLA-DRB1*1101 (human). In words: competition binding.
In experiment [7] the target is HLA-DRB5*0101 (human). In words: competition binding.
The target of experiment [8] is HLA-DRB1*0401 (human). In words: competition binding.
Experiment [9] concerns the target HLA-DRB1*1301 (human). The experiment is described as follows: competition binding.
Experiment [10] addresses HLA-DRB1*1501 (human). In words: competition binding.
In experiment [11] the target is HLA-DRB3*0101 (human). The experiment is described as follows: competition binding.

B1: peptide p21 (residues 107-121 of HLA-A2) (peptide)
peptide: WRFLRGYHQYAYDGK
As usually defined, the IC50 is the concentration that inhibits the measured activity by half. Read a low IC50 as greater potency in that assay. On to B1, for which, in experiment [1], the 50% inhibitory concentration (IC50) turned out to be 1 nM.

B2: peptide p7 (residues 31-45 of HLA-A2) (peptide)
peptide: TQFVRFDSDAASQRM
Turning to B2, the IC50 in experiment [2] was determined as 786 nM; in experiment [3], 122 nM; in experiment [4] it was 2180 nM; in experiment [5] it was 164 nM; in experiment [6] it was 4000 nM; in experiment [7] it was 1550 nM. Moreover, the IC50 was 354 nM in [8], more than 100000 nM in experiment [9], 374 nM in [10] and 456 nM in experiment [11].
